Measured values published in patent US20230183336A1 (MODMAB THERAPEUTICS, published 2023).
Where a chain is given by its changes, count along the chain named.

B1: LRP5-A7 (antibody, V domains shown)
VH: EVQLVESGGGLVQPGGSLRLSCAASGFNLSYSSMHWVRQAPGKGLEWVASIYPYYGYTYYADSVKGRFTISADTSKNTAYLQMNSLRAEDTAVYYCARHGAMDYWGQGTLVTVSS
VL: DIQMTQSPSSLSASVGDRVTITCRASQSVSSAVAWYQQKPGKAPKLLIYSASSLYSGVPSRFSGSRSGTDFTLTISSLQPEDFATYYCQQAWGWGLFTFGQGTKVEIKR
notes: Fab-phage in the screen; also called LRP5-47
B2: LRP5-A9 (antibody, V domains shown)
VH: EVQLVESGGGLVQPGGSLRLSCAASGFNISSYSIHWVRQAPGKGLEWVASSSYYGYTYYADSVKGRFTISADTSKNTAYLQMNSLRAEDTAVYYCARTVRGSKKPYFSGWAMDYWGQGTLVTVSS
VL: DIQMTQSPSSLSASVGDRVTITCRASQSVSSAVAWYQQKPGKAPKLLIYSASSLYSGVPSRFSGSRSGTDFTLTISSLQPEDFATYYCQQVHYSPYSLITFGQGTKVEIKR
notes: Fab-phage in the screen
B3: LRP5-C12 (antibody, V domains shown)
VH: EVQLVESGGGLVQPGGSLRLSCAASGFNFSSSSIHWVRQAPGKGLEWVASIYSSYGSTSYADSVKGRFTISADTSKNTAYLQMNSLRAEDTAVYYCARTVRGSKKPYFSGWAMDYWGQGTLVTVSS
VL: B1 VL with A91F, W92S, G93H, W94V, G95S, F97I
notes: Fab-phage in the screen
B4: LRP5-D9 (antibody, V domains shown)
VH: EVQLVESGGGLVQPGGSLRLSCAASGFNISYSYIHWVRQAPGKGLEWVASIYSSYGYTYYADSVKGRFTISADTSKNTAYLQMNSLRAEDTAVYYCARHYSYFFYAMDYWGQGTLVTVSS
VL: DIQMTQSPSSLSASVGDRVTITCRASQSVSSAVAWYQQKPGKAPKLLIYSASSLYSGVPSRFSGSRSGTDFTLTISSLQPEDFATYYCQQASYSPITFGQGTKVEIKR
notes: Fab-phage in the screen
B5: LRP5-E5 (antibody, V domains shown)
VH: EVQLVESGGGLVQPGGSLRLSCAASGFNIYSYSIHWVRQAPGKGLEWVASIYPYSSYTSYADSVKGRFTISADTSKNTAYLQMNSLRAEDTAVYYCARYAVYFPGYYWGMDYWGQGTLVTVSS
VL: B1 VL with A91Y, W92H, G93Y, W94Y, G95Y
notes: Fab-phage in the screen
B6: LRP5-H3 (antibody, V domains shown)
VH: EVQLVESGGGLVQPGGSLRLSCAASGFNLYYYYIHWVRQAPGKGLEWVASISPYYGYTSYADSVKGRFTISADTSKNTAYLQMNSLRAEDTAVYYCARSGYGWYAMDYWGQGTLVTVSS
VL: DIQMTQSPSSLSASVGDRVTITCRASQSVSSAVAWYQQKPGKAPKLLIYSASSLYSGVPSRFSGSRSGTDFTLTISSLQPEDFATYYCQQYWFLITFGQGTKVEIKR
notes: Fab-phage in the screen
B7: LRP5-H9 (antibody, V domains shown)
VH: EVQLVESGGGLVQPGGSLRLSCAASGFNIYSYYIHWVRQAPGKGLEWVASIYSYYGYTYYADSVKGRFTISADTSKNTAYLQMNSLRAEDTAVYYCARSYPAMDYWGQGTLVTVSS
VL: B4 VL with A91S
notes: Fab-phage in the screen
B8: LRP5-G9 (antibody, V domains shown)
VH: EVQLVESGGGLVQPGGSLRLSCAASGFNISYSYIHWVRQAPGKGLEWVASIYSSYGYTYYADSVKGRFTISADTSKNTAYLQMNSLRAEDTAVYYCARWGAYHSSGYGMDYWGQGTLVTVSS
VL: B4 VL with A91S, Y93S
notes: Fab-phage in the screen
B9: LRP5-G11 (antibody, V domains shown)
VH: EVQLVESGGGLVQPGGSLRLSCAASGFNISYSYIHWVRQAPGKGLEWVASIYPSYGYTYYADSVKGRFTISADTSKNTAYLQMNSLRAEDTAVYYCARAAPYYGYYYSYAMDYWGQGTLVTVSS
VL: B6 VL with Y91G, W92V, F93S
notes: Fab-phage in the screen

These binders were tested against T1, recombinant mouse LRP5-His chimera (mouse, UniProt Q91VN0 31-1383) (assay: single-point ELISA, coated antigen, purified Fab or IgG1, anti-kappa-HRP).
T1 construct: extracellular domain; also called ECD of mouse LRP5; not shown: His tag
T1 sequence (looked up): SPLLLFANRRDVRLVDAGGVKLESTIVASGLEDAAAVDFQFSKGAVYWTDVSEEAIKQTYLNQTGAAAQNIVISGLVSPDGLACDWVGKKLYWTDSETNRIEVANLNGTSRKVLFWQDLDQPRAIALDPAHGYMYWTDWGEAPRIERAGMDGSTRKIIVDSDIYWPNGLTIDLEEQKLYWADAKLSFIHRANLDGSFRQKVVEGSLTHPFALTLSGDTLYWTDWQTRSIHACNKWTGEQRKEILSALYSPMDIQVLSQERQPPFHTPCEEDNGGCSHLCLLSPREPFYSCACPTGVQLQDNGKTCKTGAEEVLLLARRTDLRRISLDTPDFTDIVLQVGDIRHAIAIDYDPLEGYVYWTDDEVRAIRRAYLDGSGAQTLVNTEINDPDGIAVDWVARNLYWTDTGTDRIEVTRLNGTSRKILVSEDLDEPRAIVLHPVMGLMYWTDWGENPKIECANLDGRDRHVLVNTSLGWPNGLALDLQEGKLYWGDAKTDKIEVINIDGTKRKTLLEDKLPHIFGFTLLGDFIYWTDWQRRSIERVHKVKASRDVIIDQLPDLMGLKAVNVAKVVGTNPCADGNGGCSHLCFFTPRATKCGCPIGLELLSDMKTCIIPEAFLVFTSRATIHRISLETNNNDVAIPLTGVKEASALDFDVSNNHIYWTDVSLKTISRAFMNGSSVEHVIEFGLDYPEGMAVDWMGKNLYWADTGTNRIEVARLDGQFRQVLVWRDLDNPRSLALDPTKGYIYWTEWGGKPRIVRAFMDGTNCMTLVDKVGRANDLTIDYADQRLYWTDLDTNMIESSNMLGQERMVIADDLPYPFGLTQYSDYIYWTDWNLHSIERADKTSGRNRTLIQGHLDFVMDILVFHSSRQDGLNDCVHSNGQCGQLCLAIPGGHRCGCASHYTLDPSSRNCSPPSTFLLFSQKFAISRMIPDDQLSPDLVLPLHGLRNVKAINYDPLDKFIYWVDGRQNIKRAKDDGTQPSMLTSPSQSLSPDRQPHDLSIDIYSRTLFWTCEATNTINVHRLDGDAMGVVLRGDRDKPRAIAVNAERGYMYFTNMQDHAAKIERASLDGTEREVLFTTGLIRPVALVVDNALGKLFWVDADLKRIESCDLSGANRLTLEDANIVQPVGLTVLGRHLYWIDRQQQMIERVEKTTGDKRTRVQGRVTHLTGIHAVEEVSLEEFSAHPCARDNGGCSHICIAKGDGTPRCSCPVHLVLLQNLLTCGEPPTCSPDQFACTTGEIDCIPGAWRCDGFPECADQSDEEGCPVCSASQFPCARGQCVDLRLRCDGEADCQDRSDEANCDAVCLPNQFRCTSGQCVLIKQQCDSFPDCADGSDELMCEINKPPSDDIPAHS
Description: FIGS. 1A and 1B show sixteen (16) anti-LRP antibodies. (A) The amino acid sequences of the complementarity determining regions (CDR) of the heavy (H) and the light (L) chains are presented. The antibodies were grouped into unique epitopes as determined by competitive ELISAs. (B) Single-point ELISAs were performed on 96-well Maxisorb immune plates coated with ECD's of mouse LRP5, mouse LRP6 and human LRP6 chimeras. The plates were incubated with the purified Fab or IgG1 at the concentrations indicated followed by incubation with horseradish peroxidase (HRP)-conjugated anti-kappa antibody. The wells were washed eight times followed by incubation with 3,3′,5,5′-tetramethylbenzidine/H₂O₂ peroxidase (TMB) substrate for 5-10 min. The reaction was stopped by adding 1M H₃PO₄ and the absorbance was measured spectrometrically at 450 nm in a microtiter plate reader. FIG. 1A discloses “SSVA” as SEQ ID NO: 34, and “SASSLYS” as SEQ ID NO: 35, as well as SEQ ID NOS 36-49, 51, 44, 2-4, 4, 5-7, 5, 4, 5, 8-10, 4, 52, 55, 11-16, 15, 15, 13, 17-20, 13, 53, 56, 21-23, 22, 24-33, 54, 57, respectively, in order of columns.
(§1) The full length IgG1s and the antibody fragments (Fabs) were purified and a single-point ELISA was done to determine the specificity of the antibodies. […] A multipoint competitive ELISA was used to determine the relative affinities of the antibodies to the recombinant antigen.

Binder	binding result
B1	binds
B2	binds
B3	binds
B4	binds
B5	binds
B6	binds
B7	binds

These binders were tested against T2, recombinant human LRP6-Fc chimera (human, UniProt O75581 20-1370) (assay: multipoint competitive ELISA, IgG1; varied competitor printed as recombinant human LRP6-Fc chimera, while paragraph 283 says 'the recombinant antigen').
T2 construct: extracellular domain; also called ECD of human LRP6; not shown: Fc part of the chimera
T2 sequence (looked up): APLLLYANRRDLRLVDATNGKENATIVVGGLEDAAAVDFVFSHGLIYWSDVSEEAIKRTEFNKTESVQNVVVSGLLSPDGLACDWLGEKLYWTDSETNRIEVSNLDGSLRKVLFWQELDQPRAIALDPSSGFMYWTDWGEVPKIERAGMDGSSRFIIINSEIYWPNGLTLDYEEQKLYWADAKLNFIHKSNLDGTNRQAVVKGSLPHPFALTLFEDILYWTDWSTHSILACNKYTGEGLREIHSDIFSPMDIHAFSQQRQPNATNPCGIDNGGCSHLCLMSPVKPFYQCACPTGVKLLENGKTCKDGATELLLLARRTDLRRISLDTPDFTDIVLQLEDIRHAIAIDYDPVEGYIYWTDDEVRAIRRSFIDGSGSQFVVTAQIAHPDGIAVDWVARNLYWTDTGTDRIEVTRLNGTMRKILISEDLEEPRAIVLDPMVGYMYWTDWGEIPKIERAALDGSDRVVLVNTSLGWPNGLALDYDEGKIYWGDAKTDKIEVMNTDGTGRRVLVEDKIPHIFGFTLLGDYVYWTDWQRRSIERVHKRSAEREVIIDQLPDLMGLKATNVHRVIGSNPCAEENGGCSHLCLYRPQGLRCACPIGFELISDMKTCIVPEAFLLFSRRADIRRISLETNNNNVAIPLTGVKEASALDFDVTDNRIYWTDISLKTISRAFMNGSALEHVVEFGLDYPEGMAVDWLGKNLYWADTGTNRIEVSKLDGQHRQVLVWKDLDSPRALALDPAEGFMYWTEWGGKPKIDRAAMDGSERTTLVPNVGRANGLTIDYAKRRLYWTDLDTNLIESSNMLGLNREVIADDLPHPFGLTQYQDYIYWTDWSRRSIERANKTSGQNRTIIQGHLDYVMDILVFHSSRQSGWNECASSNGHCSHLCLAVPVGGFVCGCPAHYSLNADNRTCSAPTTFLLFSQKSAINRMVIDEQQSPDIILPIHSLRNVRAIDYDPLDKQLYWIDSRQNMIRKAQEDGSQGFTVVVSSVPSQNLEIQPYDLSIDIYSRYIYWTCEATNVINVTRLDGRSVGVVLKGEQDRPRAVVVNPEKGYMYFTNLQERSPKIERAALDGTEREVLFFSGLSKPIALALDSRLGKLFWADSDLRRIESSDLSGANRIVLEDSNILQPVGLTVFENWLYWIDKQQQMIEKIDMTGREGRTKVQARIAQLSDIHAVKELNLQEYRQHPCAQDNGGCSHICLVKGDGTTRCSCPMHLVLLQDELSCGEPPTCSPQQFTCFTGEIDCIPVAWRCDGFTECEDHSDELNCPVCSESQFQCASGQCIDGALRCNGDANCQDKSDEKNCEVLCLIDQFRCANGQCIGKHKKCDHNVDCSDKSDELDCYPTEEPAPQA
Source text: as §1
Table 3 reports the IC50 of LRP5 antibodies as determined by competitive ELISA. The log of the recombinant human LRP6-Fc chimera concentration (x-axis) was plotted against the OD450 reading of the antibody (y-axis). The IC50 was determined by non-linear regression analysis.

Binder	IC50
B1	4.68 nM
B4	25.1 nM
B7	37.5 nM
B8	26.4 nM
B9	25.1 nM
